T1: PUF4 RNA-binding domain (Saccharomyces cerevisiae, UniProt P25339 537-888)
T1 sequence: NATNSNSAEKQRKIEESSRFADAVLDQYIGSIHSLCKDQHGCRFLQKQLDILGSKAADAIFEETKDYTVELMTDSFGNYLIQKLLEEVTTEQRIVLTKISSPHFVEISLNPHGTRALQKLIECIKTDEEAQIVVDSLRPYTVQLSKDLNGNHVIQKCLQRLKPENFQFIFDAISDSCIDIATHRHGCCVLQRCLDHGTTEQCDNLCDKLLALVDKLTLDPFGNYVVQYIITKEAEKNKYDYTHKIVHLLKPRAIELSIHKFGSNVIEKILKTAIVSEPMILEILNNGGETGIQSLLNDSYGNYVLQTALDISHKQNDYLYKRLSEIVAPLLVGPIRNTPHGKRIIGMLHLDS

B1: Ib_S2_P5E.1_K5.1_C5.1_H5.1_A5.1_F5.1_[T8C]_[A10G]_T5.1 (ssRNA)
RNA: UUUGAUUAAUAUGAUAUCGUUCUUUCUUGUAUUACUGUUCUUUCUCGAUAUCAUAUUAAUCUUU
B2: Ic_S2_P5E.1_K5.1_C5.1_H5.1_A5.1_F5.1_[T9C]_[A10T]_T5.1 (ssRNA)
RNA: B1 RNA with C35U, U36C, G37U
B3: Ib_S2_P5E.1_K5.1_C5.1_H5.1_[G2T]_A5.1_F5.1_[A10C]_T5.1 (ssRNA)
RNA: B1 RNA with G29U, C35U, G37C
B4: Ib_S2_P5E.1_K5.1_C5.1_H5.1_[G2C]_A5.1_F5.1_[A10T]_T5.1 (ssRNA)
RNA: B1 RNA with G29C, C35U, G37U
B5: Ib_S2_P5E.1_K5.1_C5.1_H5.1_A5.1_[T5G]_F5.1_[T8A]_T5.1 (ssRNA)
RNA: B1 RNA with U32G, C35A, G37A
B6: Ib_S2_P5E.1_K5.1_C5.1_H5.1_A5.1_F5.1_[T8C]_[A10T]_T5.1 (ssRNA)
RNA: B1 RNA with G37U
B7: Ib_S2_P5E.1_K5.1_C5.1_H5.1_[T3C]_A5.1_F5.1_[T9A]_T5.1 (ssRNA)
RNA: B1 RNA with U30C, C35U, U36A, G37A
B8: Ib_S2_P5E.1_K5.1_C5.1_H5.1_A5.1_[T5C]_F5.1_[T9C]_T5.1 (ssRNA)
RNA: B1 RNA with U32C, C35U, U36C, G37A
B9: Ib_S2_P5E.1_K5.1_C5.1_H5.1_A5.1_[T6A]_F5.1_[T8C]_T5.1 (ssRNA)
RNA: B1 RNA with U33A, G37A
B10: Ib_S2_P5E.1_K5.1_C5.1_H5.1_A5.1_[T5C]_F5.1_[T8C]_T5.1 (ssRNA)
RNA: B1 RNA with U32C, G37A
B11: Ib_S2_P5E.1_K5.1_C5.1_H5.1_A5.1_[T5G]_F5.1_[T9C]_T5.1 (ssRNA)
RNA: B1 RNA with U32G, C35U, U36C, G37A
B12: Ib_S2_P5E.1_K5.1_C5.1_H5.1_[T1A]_A5.1_F5.1_[A10T]_T5.1 (ssRNA)
RNA: B1 RNA with U28A, C35U, G37U
B13: Ib_S2_P5E.1_K5.1_C5.1_H5.1_A5.1_[T5A]_F5.1_[T8C]_T5.1 (ssRNA)
RNA: B1 RNA with U32A, G37A
B14: Ib_S2_P5E.1_K5.1_C5.1_H5.1_[T1C]_A5.1_F5.1_[A10G]_T5.1 (ssRNA)
RNA: B1 RNA with U28C, C35U
B15: Ic_S2_P5E.1_K5.1_C5.1_H5.1_A5.1_[A7G]_F5.1_[T8G]_T5.1 (ssRNA)
RNA: B1 RNA with A34G, C35G, G37A
B16: Ib_S2_P5E.1_K5.1_C5.1_H5.1_[G2C]_A5.1_F5.1_[T9A]_T5.1 (ssRNA)
RNA: B1 RNA with G29C, C35U, U36A, G37A
B17: Ib_S2_P5E.1_K5.1_C5.1_H5.1_[T1A]_A5.1_F5.1_[T9C]_T5.1 (ssRNA)
RNA: B1 RNA with U28A, C35U, U36C, G37A
B18: Ib_S2_P5E.1_K5.1_C5.1_H5.1_A5.1_[A7C]_F5.1_[T8A]_T5.1 (ssRNA)
RNA: B1 RNA with A34C, C35A, G37A
B19: Ib_S2_P5E.1_K5.1_C5.1_H5.1_A5.1_[A7T]_F5.1_[T8C]_T5.1 (ssRNA)
RNA: B1 RNA with A34U, G37A
B20: Ib_S2_P5E.1_K5.1_C5.1_H5.1_[A4T]_A5.1_F5.1_[T8C]_T5.1 (ssRNA)
RNA: B1 RNA with A31U, G37A
B21: Ib_S2_P5E.1_K5.1_C5.1_H5.1_[A4G]_A5.1_F5.1_[A10C]_T5.1 (ssRNA)
RNA: B1 RNA with A31G, C35U, G37C
B22: Ib_S2_P5E.1_K5.1_C5.1_H5.1_[G2A]_A5.1_F5.1_[A10C]_T5.1 (ssRNA)
RNA: B1 RNA with G29A, C35U, G37C
B23: Ib_S2_P5E.1_K5.1_C5.1_H5.1_[T3C]_A5.1_F5.1_[A10T]_T5.1 (ssRNA)
RNA: B1 RNA with U30C, C35U, G37U
B24: Ib_S2_P5E.1_K5.1_C5.1_H5.1_[A4T]_A5.1_F5.1_[T9C]_T5.1 (ssRNA)
RNA: B1 RNA with A31U, C35U, U36C, G37A
B25: Ib_S2_P5E.1_K5.1_C5.1_H5.1_A5.1_F5.1_[T9G]_[A10T]_T5.1 (ssRNA)
RNA: B1 RNA with C35U, U36G, G37U
B26: Ib_S2_P5E.1_K5.1_C5.1_H5.1_[T1C]_A5.1_F5.1_[A10C]_T5.1 (ssRNA)
RNA: B1 RNA with U28C, C35U, G37C
B27: Ib_S2_P5E.1_K5.1_C5.1_H5.1_[G2A]_A5.1_F5.1_[A10T]_T5.1 (ssRNA)
RNA: B1 RNA with G29A, C35U, G37U
B28: Ib_S2_P5E.1_K5.1_C5.1_H5.1_A5.1_F5.1_[T9C]_[A10C]_T5.1 (ssRNA)
RNA: B1 RNA with C35U, U36C, G37C
B29: Ib_S2_P5E.1_K5.1_C5.1_H5.1_A5.1_[T6A]_F5.1_[T8A]_T5.1 (ssRNA)
RNA: B1 RNA with U33A, C35A, G37A
B30: Ib_S2_P5E.1_K5.1_C5.1_H5.1_[T3C]_A5.1_F5.1_[T8C]_T5.1 (ssRNA)
RNA: B1 RNA with U30C, G37A
B31: Ib_S2_P5E.1_K5.1_C5.1_H5.1_[G2A]_A5.1_F5.1_[T8G]_T5.1 (ssRNA)
RNA: B1 RNA with G29A, C35G, G37A
B32: Ib_S2_P5E.1_K5.1_C5.1_H5.1_[G2C]_A5.1_F5.1_[A10G]_T5.1 (ssRNA)
RNA: B1 RNA with G29C, C35U
B33: Ib_S2_P5E.1_K5.1_C5.1_H5.1_A5.1_[T5G]_F5.1_[T9A]_T5.1 (ssRNA)
RNA: B1 RNA with U32G, C35U, U36A, G37A
B34: Ib_S2_P5E.1_K5.1_C5.1_H5.1_A5.1_F5.1_[T9A]_[A10C]_T5.1 (ssRNA)
RNA: B1 RNA with C35U, U36A, G37C
B35: Ib_S2_P5E.1_K5.1_C5.1_H5.1_A5.1_[A7T]_F5.1_[T8A]_T5.1 (ssRNA)
RNA: B1 RNA with A34U, C35A, G37A
B36: Ib_S2_P5E.1_K5.1_C5.1_H5.1_[T1A]_A5.1_F5.1_[A10C]_T5.1 (ssRNA)
RNA: B1 RNA with U28A, C35U, G37C
B37: Ib_S2_P5E.1_K5.1_C5.1_H5.1_A5.1_[T5C]_F5.1_[T8A]_T5.1 (ssRNA)
RNA: B1 RNA with U32C, C35A, G37A
B38: Ib_S2_P5E.1_K5.1_C5.1_H5.1_A5.1_[T6C]_F5.1_[T8C]_T5.1 (ssRNA)
RNA: B1 RNA with U33C, G37A
B39: Ib_S2_P5E.1_K5.1_C5.1_H5.1_[A4C]_A5.1_F5.1_[T8C]_T5.1 (ssRNA)
RNA: B1 RNA with A31C, G37A
B40: Ib_S2_P5E.1_K5.1_C5.1_H5.1_[A4C]_A5.1_F5.1_[A10C]_T5.1 (ssRNA)
RNA: B1 RNA with A31C, C35U, G37C
B41: Ib_S2_P5E.1_K5.1_C5.1_H5.1_[T3C]_A5.1_F5.1_[T8A]_T5.1 (ssRNA)
RNA: B1 RNA with U30C, C35A, G37A
B42: Ib_S2_P5E.1_K5.1_C5.1_H5.1_[A4C]_A5.1_F5.1_[A10T]_T5.1 (ssRNA)
RNA: B1 RNA with A31C, C35U, G37U
B43: Ib_S2_P5E.1_K5.1_C5.1_H5.1_[G2A]_A5.1_F5.1_[T9C]_T5.1 (ssRNA)
RNA: B1 RNA with G29A, C35U, U36C, G37A
B44: Ia_S2_P5E.1_K5.1_C5.1_H5.1_A5.1_F5.1_[T8G]_T5.1 (ssRNA)
RNA: B1 RNA with C35G, G37A
B45: Ib_S2_P5E.1_K5.1_C5.1_H5.1_[G2A]_A5.1_F5.1_[A10G]_T5.1 (ssRNA)
RNA: B1 RNA with G29A, C35U
B46: Ib_S2_P5E.1_K5.1_C5.1_H5.1_[A4T]_A5.1_F5.1_[T8A]_T5.1 (ssRNA)
RNA: B1 RNA with A31U, C35A, G37A
B47: Ib_S2_P5E.1_K5.1_C5.1_H5.1_A5.1_F5.1_[T9A]_[A10G]_T5.1 (ssRNA)
RNA: B1 RNA with C35U, U36A
B48: Ib_S2_P5E.1_K5.1_C5.1_H5.1_A5.1_[T5G]_F5.1_[T8C]_T5.1 (ssRNA)
RNA: B1 RNA with U32G, G37A
B49: Ib_S2_P5E.1_K5.1_C5.1_H5.1_A5.1_F5.1_[T8A]_[A10C]_T5.1 (ssRNA)
RNA: B1 RNA with C35A, G37C
B50: Ia_S2_P5E.1_K5.1_C5.1_H5.1_A5.1_F5.1_[T8C]_T5.1 (ssRNA)
RNA: B1 RNA with G37A
B51: Ib_S2_P5E.1_K5.1_C5.1_H5.1_A5.1_F5.1_[T9A]_[A10T]_T5.1 (ssRNA)
RNA: B1 RNA with C35U, U36A, G37U
B52: Ia_S2_P4E.1_K4.1_C4.1_H4.1_A4.1_[T7G]_F4.1_T4.1 (ssRNA)
RNA: UUUGAUUAAUAUGAUAUCGUUCUUUCUUGUAUAGUAUUCUUUCUCGAUAUCAUAUUAAUCUUU
B53: Ia_S2_P4E.1_K4.1_C4.1_H4.1_A4.1_[T7A]_F4.1_T4.1 (ssRNA)
RNA: B52 RNA with G34A

Numbering of substitutions follows the chain as printed. Names and notes keep the numbering of the source.

For 53 molecules, Kd results are on record in paper PMC9352680, “A comprehensive thermodynamic model for RNA binding by the Saccharomyces cerevisiae Pumilio protein PUF4”.

For the data set, the target named is T1, PUF4 RNA-binding domain. As to the kind of experiment: Mg; RNA-MaP; 20 mM Na-HEPES pH 7.4, 30 mM KOAc, 0.75 mM MgCl2, 0.1% Tween-20, 5% glycerol, 0.1 mg/mL BSA, 2 mM DTT; 25 C; 0.0125-409.6 nM protein. The note with it: tags: N-His6-TEV cleaved; C-SNAP kept, Cy3B-labelled; label: tethered on chip by stalled RNA polymerase.
As to B1, binding was characterised by a dissociation constant (Kd) of 64.4 nM. In the case of B2 it was 17.6 nM; in that of B3, > 2300 nM; in that of B4, 1700 nM. As for B5, the dissociation constant Kd was 31.4 nM. In the case of B6 it was 64.6 nM. In the case of B7 it was 608 nM; in that of B8, 16.9 nM; in that of B9, 5.31 nM. In the case of B10 it was 2.86 nM. In turn, B11 had an equilibrium dissociation constant (Kd) of 104 nM. In the case of B12 it was > 2300 nM. In the case of B13 it was 7.72 nM; in that of B14, 1750 nM. With B15 the figure was 62.8 nM; with B16, 1690 nM. For the molecule B17, the dissociation constant (Kd) is > 2300 nM.

In turn, B18 returned a Kd of 8.24 nM.

In the case of B19, the Kd stood at 3.48 nM. For the molecule B20, binding was put at a Kd of 25 nM. With B21 the figure was 106 nM; with B22, 294 nM; with B23, 2020 nM. The molecule B24 returned a Kd of 1480 nM.

B25 registered a Kd of 3.65 nM.

B26 registered a Kd of 2010 nM. With B27 the figure was 137 nM; with B28, 19.4 nM. In the case of B29 it was 5.15 nM; in that of B30, 562 nM; in that of B31, 695 nM. With B32 the figure was > 2300 nM. Take B33: the Kd is 5.43 nM. In the case of B34 it was 7.25 nM; in that of B35, 3.83 nM.

As for B36, the Kd was > 2300 nM. The molecule B37 yielded an equilibrium dissociation constant (Kd) of 4.42 nM. In the case of B38 it was 3.8 nM; in that of B39, 39.2 nM; in that of B40, 572 nM. With B41 the figure was 1260 nM; with B42, 180 nM. In the case of B43 it was 429 nM; in that of B44, 26.8 nM. On to B45, for which the affinity, expressed as Kd, was 420 nM.

The molecule B46 displayed a Kd of 27.9 nM. With B47 the figure was 3.11 nM; with B48, 12.9 nM. With B49 the figure was 181 nM. In the case of B50 it was 2.99 nM; in that of B51, 0.947 nM; in that of B52, 1.05 nM. Molecule B53 registered a dissociation constant (Kd) of 0.749 nM.

What is called Kd is the free concentration of one partner at which half of the binding sites on the other are occupied at equilibrium, for simple one-to-one binding. A high value points to a looser complex.
